Assay [1] concerns the target T1, human CD47 on CCRF-CEM cells (human, UniProt Q08722 19-323).
T1 construct: Endogenous CD47 on the human T lymphoblast line CCRF-CEM (ATCC CCL-119); also called CD47-positive CCRF-CEM cells; CCRF-EM cells
Kind of assay: flow cytometry on CCRF-CEM cells, MFI against concentration, one site specific binding with Hill slope. The method, then: To obtain binding curves, sample variants were titrated 1:2 in FACS buffer (PBS 2% FCS) starting from a high concentration of ˜66 nM for each sample. 0.1×10⁶ CCRF-EM cells were plated in a 96 well plate and incubated in 50 μl FACS buffer containing the indicated concentration of sample variants for 1 hour in ice. Cells were then washed with 150 μ1 FACS buffer and incubated in 50 μl FACS buffer containing the secondary antibody (anti-human-IgG-PE, Jackson ImmunoResearch) diluted 1:100, for 1 hr in ice. Cells were then washed with FACS buffer and fixed in 2% PFA for acquisition with LSR II, DB flow cytometer (BD Biosciences, San Jose, Calif.). Flow Cytometry analysis was performed using FloJo software Version 9.6.4. To obtain titration curves and Kd, Mean Fluorescence Intensity (MFI) values were plotted against concentration (nM). Kd values were calculated using Prism 6, Non linear regression curve fit analysis, One Site Specific Binding with Hill Slope.
For orientation: In flow cytometry, cells or beads pass a laser one at a time.

The target in assay [2] is T2, human C1q (human, UniProt P02745 23-245; P02746 28-253; P02747 29-245).
T2 construct: also called C1q (AbD Serotec 2221-5504)
The assay is described as follows: C1q binding ELISA, antibody coated and titrated from 133.4 nM, human C1q at 2 µg/mL, detected with anti-C1q HRP. The procedure: (§1) Method: 96-well high protein binding ELISA plates (MaxSorp Nunc) were coated overnight at 4° C. with sample anti-CD47 antibody variants diluted in 0.05 M Sodium Bicarbonate Buffer (pH 9). Samples were diluted at a high concentration of 133.4 nM (20 μg/ml) and titrated 1:2 in an 11-point dilution curve. Plates were washed three times in PBS, 0.05% Tween 20 and blocked for 1 hour at room temperature with ELISA Diluent (0.1 M NAPO₄, 0.1 M NaCl, 0.1% gelatin, 0.05% Tween 20, 0.05% ProClin300). Plates were then washed again three times and incubated for two hours at room temperature with 2 μg/mL human C1q (AbD Serotec 2221-5504, 1 mg/mL stock) diluted in ELISA Diluent. Plates were then washed three times and incubated with sheep anti-human C1q HRP (AbD Serotec 2221-5004P) diluted 1:200 in ELISA Diluent for 1 hour at room temperature to detect bound Clq. Plates were then washed three times, then 100 μL of TMB solution was added. Reaction was quenched by adding 100 μl of 1M Phosphoric Acid and plate was read at 450 nm. Data are plotted using Prism6 as non-linear regression with log (inhibitor) vs. response—Variable slope (four parameters).
(ELISA stands for enzyme-linked immunosorbent assay.)

For assay [3], the target named is T2, human C1q. The assay is described as follows: C1q binding ELISA, antibody coated and titrated, bound human C1q detected with anti-C1q HRP; NA = do not show activity. The method, then: as §1
For assay [4], the target named is T3, human CD47 antigen (human, UniProt Q08722 19-139, limits assumed).
T3 construct: also called CD47 analyte
Kind of assay: SPR (Biacore): antibody captured on anti-human Fc CM5 chip, human CD47 as analyte at 3.125-50 nM, 1:1 Binding model; the text says this fit is not reliable. The procedure: (§2) Immobilization: Anti-human Fc (AHC) surfaces were prepared by amine-coupling monoclonal mouse anti-human Fc IgG (included in the Biacore Human Antibody Capture Kit, GE Life Sciences Cat #BR-1008-39) to a Biacore CM5 sensor chip surface. The running buffer for the immobilization procedure was HBS-EP+ (10 mM HEPES, 150 mM NaCl, 3 mM EDTA, 0.05% v/v P-20 as surfactant). The following was performed in all four flow cells to prepare surfaces amine-coupled anti-human Fc IgG. The CM5 chip surface was activated by injecting a 1:1 (v/v) mixture of 400 mM EDC and 100 mM NHS for 7 minutes at 10 μL/min. Following this treatment, anti-human IgG was diluted to 25 μg/mL in 10 mM sodium acetate buffer pH 5.0, and injected over all the flow cells at 10 μL/min for 7 minutes. Then, Ethanolamine was injected at 10 μL/min for 7 minutes to block all the surfaces.
(§3) Kinetic Assays: For kinetic assays anti-CD47 antibodies were captured onto the anti-human Fc surfaces (surface preparation described above). For capture of the antibodies with human Fc, the antibodies were diluted to 10 μg/mL in HBS-EP+ running buffer. The antibody variants were immobilized by flowing over flow cell 2, 3 or 4 at a flow rate of 10 uL/min for 12 seconds. The analyte (human CD47 antigen) was diluted into running buffer to prepare a serial dilution series created with a 2-fold dilution factor to give concentrations of 3.125, 6.25, 12.5, 25 and 50 nM. After anti-CD47 antibody capture, the CD47 analyte was injected over the flow cells for 180 seconds (3 minutes) at 50 μL/min, and complex dissociation was monitored for 900 seconds (15 minutes). Buffer blanks were also run, and were used to reference the analyte binding data before fitting. Anti-human Fc surfaces were regenerated with two 30-second injections of 3M MgCl₂ at 30 uL/min between each analyte binding cycle.
(§4) Kinetic data analysis: Experimental data for a given antibody—antigen interaction were fit using the 1:1 binding model, using global Rₘₐₓ, global kₐ (association), global kd (dissociation) parameters, and constant RI (bulk refractive index) parameters.
In general terms: Surface plasmon resonance follows binding to a sensor surface in real time, without labels.

For assay [5], the target named is T3, human CD47 antigen. The assay is described as follows: SPR (Biacore), experimental Rmax against theoretical Rmax, stoichiometry 2. The method, then:
as §3
Kinetic data analysis: Experimental data for a given antibody—antigen interaction were fit using the 1:1 binding model, using global Rₘₐₓ, global kₐ (association), global kd (dissociation) parameters, and constant RI (bulk refractive index) parameters. Fraction activity (% ligand activity) was determinined using the following formula to calculate the relationship between the theoretical Rₘₐₓ (Rₘₐₓ Theo) and the experimental Rₘₐₓ (Rₘₐₓ exp). In the formula, stoichiometry represents the instances of interaction between antibody and antigen, for instance, when the antibody is the ligand, each of the antibody arms can interact with antigen, thus the stoichiometry is 2.

Assay [6] concerns the target T3, human CD47 antigen. Kind of assay: SPR (Biacore), antibody captured on anti-human Fc, human CD47 as analyte 3.125-50 nM, 1:1 model. The method, then: as §2, §3, §4

T2 sequence (P02745 23-245 limits assumed, chain 1 of 3): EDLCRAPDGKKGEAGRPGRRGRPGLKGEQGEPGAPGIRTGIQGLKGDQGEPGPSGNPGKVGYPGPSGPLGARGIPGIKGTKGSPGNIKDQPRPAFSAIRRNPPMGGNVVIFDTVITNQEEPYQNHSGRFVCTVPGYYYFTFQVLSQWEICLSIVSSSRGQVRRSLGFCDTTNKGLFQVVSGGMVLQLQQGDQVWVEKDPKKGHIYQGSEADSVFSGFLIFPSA
T2 sequence (P02746 28-253 limits assumed, chain 2 of 3): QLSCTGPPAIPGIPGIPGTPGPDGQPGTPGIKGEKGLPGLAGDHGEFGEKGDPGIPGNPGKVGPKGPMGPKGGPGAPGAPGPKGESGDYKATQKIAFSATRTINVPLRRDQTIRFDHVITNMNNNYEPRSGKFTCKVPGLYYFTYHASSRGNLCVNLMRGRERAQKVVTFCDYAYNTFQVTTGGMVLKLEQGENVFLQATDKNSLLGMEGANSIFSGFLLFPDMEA
T2 sequence (P02747 29-245 limits assumed, chain 3 of 3): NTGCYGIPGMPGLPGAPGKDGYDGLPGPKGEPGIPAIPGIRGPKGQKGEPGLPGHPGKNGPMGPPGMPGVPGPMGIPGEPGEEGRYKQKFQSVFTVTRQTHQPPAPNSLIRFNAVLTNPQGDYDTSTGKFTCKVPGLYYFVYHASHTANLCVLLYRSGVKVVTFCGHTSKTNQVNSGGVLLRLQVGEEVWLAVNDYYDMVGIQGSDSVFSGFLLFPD

B1: anti-CD47 antibody IgG1-parental, CHO expressed (antibody)
VH: not shown
VL: NIQMTQSPSAMSASVGDRVTITCKASQDIHRYLSWFQQKPGKVPKHLIYRANRLVSGVPSRFSGSGSGTEFTLTISSLQPEDFATYYCLQYDEFPYTFGGGTKVEIKRTVAAPSVFIFPPSDEQLKSGTASVVCLLNNFYPREAKVQWKVDNALQSGNSQESVTEQDSKDSTYSLSSTLTLSKADYEKHKVYACEVTHQGLSSPVTKSFNRGEC
notes: Parental antibody as IgG1, made in CHO cells; also called IgG1-QN1-CHO
The term Kd denotes a measure of binding affinity in units of concentration. Low readings indicate higher affinity, high ones lower affinity. As a reminder, the EC50 is the concentration that produces a half-maximal response. Lower therefore signals an effect from little substance. For B1, binding in assay [1] was characterised by a dissociation constant (Kd) of 0.18 nM. The same molecule showed an EC50 in the assay with human C1q [2] of 3.6 nM.

B2: anti-CD47 antibody IgG4P-parental, CHO expressed (antibody)
VH: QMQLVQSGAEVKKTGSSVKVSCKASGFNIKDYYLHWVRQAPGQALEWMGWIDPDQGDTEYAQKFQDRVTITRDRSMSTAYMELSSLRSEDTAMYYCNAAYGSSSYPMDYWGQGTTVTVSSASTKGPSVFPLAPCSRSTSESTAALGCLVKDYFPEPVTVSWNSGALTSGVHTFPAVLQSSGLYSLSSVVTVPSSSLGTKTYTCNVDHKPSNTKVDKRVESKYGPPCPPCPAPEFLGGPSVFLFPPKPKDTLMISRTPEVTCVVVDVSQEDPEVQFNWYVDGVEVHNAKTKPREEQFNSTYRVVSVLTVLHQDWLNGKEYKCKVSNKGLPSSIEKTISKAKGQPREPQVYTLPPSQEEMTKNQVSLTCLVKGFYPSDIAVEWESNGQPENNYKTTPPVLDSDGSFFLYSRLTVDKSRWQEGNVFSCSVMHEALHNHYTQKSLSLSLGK
VL: B1 VL
notes: Parental antibody as IgG4 S228P, made in CHO cells
With B2, in the assay with human C1q [3], the binding result is recorded as “no binding”. This molecule also had a Kd in assay [1] of 0.18 nM.

B3: anti-CD47 antibody IgG4PE-parental, CHO expressed (antibody)
VH: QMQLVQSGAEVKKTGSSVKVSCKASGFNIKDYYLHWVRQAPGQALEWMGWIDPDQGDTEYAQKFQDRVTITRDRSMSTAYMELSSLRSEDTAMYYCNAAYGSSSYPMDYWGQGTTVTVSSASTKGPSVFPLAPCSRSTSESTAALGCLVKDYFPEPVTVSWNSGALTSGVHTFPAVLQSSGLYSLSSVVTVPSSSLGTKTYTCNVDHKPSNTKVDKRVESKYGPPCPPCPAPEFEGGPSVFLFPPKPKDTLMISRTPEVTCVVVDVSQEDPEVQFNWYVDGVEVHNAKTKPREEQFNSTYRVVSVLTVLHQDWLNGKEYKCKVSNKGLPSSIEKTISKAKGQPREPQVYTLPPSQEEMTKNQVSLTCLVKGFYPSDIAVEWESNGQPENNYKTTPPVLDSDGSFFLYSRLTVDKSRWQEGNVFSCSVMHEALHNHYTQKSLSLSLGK
VL: B1 VL
notes: Parental antibody as IgG4 S228P/L235E, made in CHO cells; also called IgG4-PE CHO; CHO IgG4PE
For the molecule B3, the binding result with human C1q [3] is on record as “no binding”. This molecule yielded a Kd in assay [1] of 0.21 nM.

B4: anti-CD47 antibody IgG1-13m, cell-free expressed (antibody)
heavy: not shown
light: MNIQMTQSPSAMSASVGDRVTITCKASQDIHRYLSWFQQKPGKVPKHLIYRANRLVSGVPSRFSGSGSGTEFTLTISSLQPEDFATYYCLQYDEFPYTFGGGTKVEIKRTVAAPSVFIFPPSDEQLKSGTASVVCLLNNFYPREAKVQWKVDNALQSGNSQESVTEQDSKDSTYSLSSTLTLSKADYEKHKVYACEVTHQGLSSPVTKSFNRGEC
notes: IgG1 with 13 framework mutations in VH; cell-free system; also called IgG1-13m-CF
Usually koff stands for a measure of how fast the partners let go of each other. A higher koff goes with a short-lived complex. Broadly, the kon is the second-order rate constant of association. Low readings indicate slower complex formation, high ones faster complex formation. With B4, the binding result with human C1q [3] is “no binding”. Also, in the assay with human CD47 antigen [4], the Kd stood at 4.21 nM, the koff amounted to 0.00398 s⁻¹ and the kon came to 946000 M⁻¹ s⁻¹. The molecule also yielded a Kd in assay [1] of 0.15 nM.

B5: anti-CD47 antibody IgG4P-parental, cell-free expressed (antibody)
heavy: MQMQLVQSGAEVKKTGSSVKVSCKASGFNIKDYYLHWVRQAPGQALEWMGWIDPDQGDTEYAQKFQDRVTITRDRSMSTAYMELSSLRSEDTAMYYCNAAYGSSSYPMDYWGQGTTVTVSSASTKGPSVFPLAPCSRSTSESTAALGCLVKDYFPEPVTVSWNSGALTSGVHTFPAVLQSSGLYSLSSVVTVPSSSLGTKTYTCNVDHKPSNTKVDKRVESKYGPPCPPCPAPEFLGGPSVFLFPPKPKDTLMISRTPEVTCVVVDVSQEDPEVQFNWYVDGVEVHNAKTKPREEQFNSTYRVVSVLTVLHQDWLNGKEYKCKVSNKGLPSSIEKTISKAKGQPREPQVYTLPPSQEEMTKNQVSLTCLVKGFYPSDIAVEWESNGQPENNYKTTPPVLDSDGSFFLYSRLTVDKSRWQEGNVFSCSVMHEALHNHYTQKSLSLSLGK
light: B4 light
notes: Parental variable domains on IgG4 S228P; cell-free system; also called IgG4P-parental-CF
Turning to B5, the binding result in the assay with human C1q [3] is “no binding”.

B6: anti-CD47 antibody IgG1-parental, cell-free expressed (antibody)
heavy: not shown
light: B4 light
notes: Parental (AB6.12) variable domains on IgG1; cell-free system; also called IgG1-parental-CF; IgG1-CF
Consider B6, for which the binding result in the assay with human C1q [3] is “no binding”. In assay [1], this molecule displayed a Kd of 0.14 nM.

B7: anti-CD47 antibody IgG4P-5m, cell-free expressed (antibody)
heavy: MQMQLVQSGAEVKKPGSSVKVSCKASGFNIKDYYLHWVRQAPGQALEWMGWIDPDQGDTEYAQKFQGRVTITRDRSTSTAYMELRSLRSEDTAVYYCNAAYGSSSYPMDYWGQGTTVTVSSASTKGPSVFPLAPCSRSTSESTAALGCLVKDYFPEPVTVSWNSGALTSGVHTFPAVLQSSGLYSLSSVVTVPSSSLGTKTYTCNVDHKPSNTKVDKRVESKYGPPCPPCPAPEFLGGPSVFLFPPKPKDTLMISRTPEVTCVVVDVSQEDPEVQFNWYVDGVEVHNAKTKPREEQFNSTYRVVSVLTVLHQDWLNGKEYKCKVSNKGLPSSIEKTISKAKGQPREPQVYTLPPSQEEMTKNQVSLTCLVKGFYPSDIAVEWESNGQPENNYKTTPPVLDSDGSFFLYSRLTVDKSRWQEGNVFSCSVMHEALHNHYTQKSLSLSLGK
light: B4 light
notes: IgG4 S228P with 5 framework mutations in VH; cell-free system; also called IgG4P-5m-CF
On to B7, for which the binding result with human C1q [3] is reported as “no binding”. The “% Ligand activity” value in the assay with human CD47 antigen [5] came out at 38.2%. In assay [1], this molecule had a Kd of 0.14 nM. Besides, in the assay with human CD47 antigen [6], binding was characterised by a dissociation constant (Kd) of 3.6 nM, the koff amounted to 0.00254 s⁻¹ and the association rate constant (kon) came out at 704000 M⁻¹ s⁻¹.

B8: anti-CD47 antibody IgG1-5m, cell-free expressed (antibody)
heavy: not shown
light: B4 light
notes: IgG1 with 5 framework mutations in VH; also called IgG1-5m-CF
With B8, the binding result in the assay with human C1q [3] is “no binding”. For the same molecule, the “% Ligand activity” value in the assay with human CD47 antigen [5] is 37.4%. This molecule yielded an equilibrium dissociation constant (Kd) in assay [1] of 0.12 nM. In the assay with human CD47 antigen [6], this molecule showed a Kd of 4.09 nM, a koff of 0.0026 s⁻¹ and an on-rate constant (kon) of 636000 M⁻¹ s⁻¹.

B9: anti-CD47 antibody IgG1-13mZ, cell-free expressed (antibody)
heavy: not shown
light: B4 light
notes: IgG1 Z allotype with 13 framework mutations in VH (13 + 2 mutations); cell-free system; also called IgG1-13mZ-CF
Regarding B9, in the assay with human C1q [3], the binding result was “no binding”. In the assay with human CD47 antigen [4], this molecule gave a Kd of 4.91 nM, a koff of 0.00404 s⁻¹ and a kon of 824000 M⁻¹ s⁻¹. For the same molecule, in assay [1], binding was characterised by a dissociation constant (Kd) of 0.21 nM.

B10: anti-CD47 antibody IgG4PE-parental, cell-free expressed (antibody)
heavy: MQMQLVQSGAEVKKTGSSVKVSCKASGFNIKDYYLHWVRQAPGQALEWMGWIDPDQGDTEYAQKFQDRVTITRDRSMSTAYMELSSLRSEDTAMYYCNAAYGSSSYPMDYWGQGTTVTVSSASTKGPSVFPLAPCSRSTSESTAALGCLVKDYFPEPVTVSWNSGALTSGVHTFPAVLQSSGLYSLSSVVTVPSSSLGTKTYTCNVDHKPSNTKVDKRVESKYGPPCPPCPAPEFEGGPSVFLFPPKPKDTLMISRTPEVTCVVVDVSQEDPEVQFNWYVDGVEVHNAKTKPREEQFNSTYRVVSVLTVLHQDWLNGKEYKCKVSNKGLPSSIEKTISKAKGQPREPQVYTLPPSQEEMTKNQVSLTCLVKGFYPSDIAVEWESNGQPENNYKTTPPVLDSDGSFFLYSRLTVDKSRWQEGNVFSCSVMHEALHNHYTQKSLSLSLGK
light: B4 light
notes: Parental variable domains on IgG4 S228P/L235E; cell-free system; also called IgG4PE-parental-CF
On to B10, for which the binding result with human C1q [3] is on record as “no binding”.

B11: anti-CD47 antibody IgG4PE-5m, cell-free expressed (antibody)
heavy: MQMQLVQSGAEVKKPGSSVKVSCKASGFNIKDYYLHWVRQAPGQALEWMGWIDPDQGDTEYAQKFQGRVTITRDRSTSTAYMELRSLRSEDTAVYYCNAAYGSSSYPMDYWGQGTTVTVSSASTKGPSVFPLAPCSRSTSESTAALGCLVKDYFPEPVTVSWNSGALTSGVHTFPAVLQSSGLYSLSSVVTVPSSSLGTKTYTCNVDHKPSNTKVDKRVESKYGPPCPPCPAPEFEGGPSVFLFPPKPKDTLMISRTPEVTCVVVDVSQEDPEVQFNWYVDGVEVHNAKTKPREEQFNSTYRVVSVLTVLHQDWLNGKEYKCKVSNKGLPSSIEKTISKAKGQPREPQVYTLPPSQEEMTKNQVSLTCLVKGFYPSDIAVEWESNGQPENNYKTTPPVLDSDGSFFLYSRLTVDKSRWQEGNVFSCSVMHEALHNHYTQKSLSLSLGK
light: B4 light
notes: IgG4 S228P/L235E with 5 framework mutations in VH; cell-free system; also called IgG4PE-5m-CF
B11: in the assay with human C1q [3], the binding result is “no binding”. The “% Ligand activity” value in the assay with human CD47 antigen [5] was 39.2%. In assay [1], this molecule yielded a Kd of 0.14 nM. Moreover, in the assay with human CD47 antigen [6], the Kd is 4.27 nM, the koff was determined as 0.00254 s⁻¹ and the on-rate constant (kon) came out at 594000 M⁻¹ s⁻¹.

B12: Anti-CD47 CF Control (antibody, V domains shown)
VH: QMQLVQSGAEVKKTGSSVKVSCKASGFNIKDYYLHWVRQAPGQALEWMGWIDPDQGDTEYAQKFQDRVTITRDRSMSTAYMELSSLRSEDTAMYYCNAAYGSSSYPMDYWGQGTTVTV
VL: NIQMTQSPSAMSASVGDRVTITCKASQDIHRYLSWFQQKPGKVPKHLIYRANRLVSGVPSRFSGSGSGTEFTLTISSLQPEDFATYYCLQYDEFPYTFGGGTKVEIK
notes: also called Control Antibody; anti-CD47 control antibody
Take B12: the “% Ligand activity” value in the assay with human CD47 antigen [5] came out at 39.4%. In the assay with human CD47 antigen [6], this molecule returned a Kd of 3.16 nM, a koff of 0.00231 s⁻¹ and a kon of 732000 M⁻¹ s⁻¹.

Values taken from patent US20170369572A1 (CELGENE, published 2017).
